Source: US20120269815A1, “NEUROTROPHINS AND USES THEREOF” (Regents of the University of Minnesota, priority 2008, published 2012)

Legend:
[1] = tested on: TUF1 expression in adrenal glomerulosa cell dispersion; assay: Angiotensin II stimulation of adrenal glomerulosa cell dispersion (qPCR); format: cell-based, rat; conditions: overnight incubation, 5-500 ng/mL
Method: Adrenal glands were dissected from adult Sprague-Dawley rats (280 g-300 g) and kept in cold PBS. Following fat removal, adrenal capsules were detached and placed into a few drops of dispersion media (DMEM, 1.0 g/L glucose, 0.32% collagenase (type I, GIBCO, Life Technologies Corp., Carlsbad, Calif.), 4% BSA (Sigma-Aldrich Co., St. Louis, Mo.), 0.1% DNAse (Sigma-Aldrich Co., St. Louis, Mo.). Adrenal capsules were then minced with surgical scissors, transferred to dispersion media and incubated for 90 minutes in a 37° C. and 10% CO2 cell culture incubator with trituration at 15 minute intervals. Dispersed cells were filtered through a 100 μm wire mesh into wash media (DMEM, 0.4% BSA, 0.28% HEPES) and centrifuged at 200×g for 5 minutes. Following supernatant removal, cells were rinsed in wash media and resuspended in incubation media (wash media+7.65 mM CaCl2). Dissociated cells were seeded at 75,000 cells/well in a 24-well plate and incubated at 37° C. and 10% CO2 prior to stimulation. […]
Following overnight incubation, total RNA was isolated from capsular/glomerulosa cells using an RNA-isolation kit (Zymo Research Corp., Orange, Calif.) and concentrations were measured by absorbance at 260 nm ([…]) using a NanoDrop ND-1000 (NanoDrop Technologies, Inc., Wilmington, Del.). […]

p75^NTR = biological target: T1, p75^NTR (Homo sapiens, UniProt P08138); assay: Fluorescence-labeled TUF1 peptide binding to COS7 cells expressing p75NTR; conditions: labeled peptide 5 nM, 90 min, COS7 cells transfected with pCMV-SPORT6-p75
T1 construct: host or cells: COS7
T1 sequence (P08138 29-427): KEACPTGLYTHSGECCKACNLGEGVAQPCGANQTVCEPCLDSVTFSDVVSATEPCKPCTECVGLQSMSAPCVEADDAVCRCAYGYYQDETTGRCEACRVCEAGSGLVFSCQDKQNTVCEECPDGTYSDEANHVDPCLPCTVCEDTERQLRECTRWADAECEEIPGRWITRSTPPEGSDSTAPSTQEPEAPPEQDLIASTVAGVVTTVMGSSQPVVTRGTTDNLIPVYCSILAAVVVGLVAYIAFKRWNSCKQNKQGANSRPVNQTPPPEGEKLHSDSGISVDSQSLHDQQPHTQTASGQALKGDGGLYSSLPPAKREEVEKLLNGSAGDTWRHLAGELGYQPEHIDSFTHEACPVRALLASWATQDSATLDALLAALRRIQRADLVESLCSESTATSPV
Method: COS7 cells were seeded at 10,000 cells/well onto a 18 mm coverslip in a 12-well plate. Cells were allowed to settle overnight in a cell culture incubator (NuAire NU-8600, NuAire, Inc., Plymouth, Minn.) set at 37° C. and 5% CO2. Cells were transfected with pCMV-eGFP (Clontech Laboratories, Inc., Mountain View, Calif.) or pCMV-SPORT6-p75 (ATCC) using Fugene HD (Roche Diagnostics Corp., Indianapolis, Ind.) and were incubated overnight. The binding assays were carried out according to Horton et al. with modifications. Synthetic TUF1 peptides (TUF1[43-54] (SEQ ID NO:1) and TUF1[24-40] (SEQ ID NO:3) were generated (via Sigma Genosys, Sigma-Aldrich Co. St. Louis, Mo.) and were conjugated per manufacturer's recommendation with DyLight 549 NHS Ester (Thermo Fisher Scientific, Waltham, Mass.), which have similar spectra to Cy3 dye. Unconjugated dye was removed with a dye removal column (Thermo Fisher Scientific, Waltham, Mass.). Labeled peptides were diluted to 5 nM in 0.15 M Sucrose/PBS and added (1.0 ml/well) to transfected COS7 cells. The binding reaction was incubated in the dark at room temperature for 90 minutes. Cells were rinsed thoroughly with PBS+0.05% Tween-20 to remove unbound peptide. Cells were then fixed with 4% Paraformaldehyde (5 minutes).
Following fixation, cells were permeabilized in PBS+0.1% Tween-20 for 10 minutes, rinsed thoroughly with PBS, and blocked in BSA (10 mg/ml) for 10 minutes. Cells were incubated with rabbit anti-p75^NTR antibody (1:10,000 dilution) for 30 minutes. Excess antibody was removed with PBS washes. Cells were then incubated with Alexa-488 goat anti-rabbit antibody (1:500 dilution, Invitrogen). Cells were again rinsed thoroughly with PBS and mounted in Vectashield mounting media plus DAPI (Vector Laboratories, Inc., Burlingame, Calif.).
COS7 cells were seeded at 10,000 cells/well onto an 18 mm coverslip in a 12-well plate. Cells were allowed to settle overnight in a cell culture incubator (NuAire NU-8600, NuAire, Inc., Plymouth, Minn.) set at 37° C. and 5% CO2. Cells were transfected with pCMV-eGFP (Clontech Laboratories, Inc., Burlingame, Calif.) or pCMV-SPORT6-p75 (ATCC) using Fugene HD (Roche Diagnostics Corp., Indianapolis, Ind.) and were incubated overnight. The binding assays were carried out according to Horton et al. with modifications. Synthetic TUF1 peptides (TUF1[43-54] (SEQ ID NO:1) and TUF1[24-40] (SEQ ID NO:3)) were generated (via Sigma Genosys, Sigma-Aldrich, St. Louis, Mo.) and were conjugated per manufacturer's recommendation with DyLight 549 NHS Ester (Thermo Fisher Scientific Inc., Waltham, Mass.), which have similar spectra to Cy3 dye. Unconjugated dye was removed with a dye removal column (Thermo Fisher Scientific Inc., Waltham, Mass.). Labeled peptides were diluted to 5 nM in 0.15M Sucrose/PBS and added (1.0 ml/well) to transfected COS7 cells. The binding reaction was incubated in the dark at room temperature for 90 min. Cells were rinsed thoroughly with PBS+0.05% Tween-20 to remove unbound peptide. Cells were then fixed with 4% Paraformaldehyde (5 minutes).
Following fixation, cells were permeabilized in PBS+0.1% Tween-20 for 10 minutes, rinsed thoroughly with PBS, and blocked in BSA (10 mg/ml) for 10 minutes. Cells were incubated with rabbit anti-p75^NTR antibody (1:10,000 dilution) for 30 minutes. Excess antibody was removed with PBS washes. Cells were then incubated with Alexa-488-goat anti-rabbit antibody (1:500 dilution, Invitrogen Corp., Carlsbad, Calif.). […]

Substance | TUF1 expression [1] | binding to p75^NTR (p75^NTR) | binding to p75^NTR (p75^NTR; listed as TUF1^24-40)
Angiotensin II (DRVYIHPF; Angiotensin-2; UniProt P01019 25-32, looked up) [angiotensin II (Sigma-Aldrich) used to stimulate adrenal glomerulosa cells] | activates TUF1 expression |  | 
TUF1[24-40]: synthetic TUF1 peptide, SEQ ID NO:3, without similarity to neurotrophic factors (NGF and BDNF) (GTIKLTPRLSKDAYSEM; Artifical sequence; TUF1 polypeptide) |  | did not bind cells expressing p75^NTR | did not bind the p75^NTR
